Experimental data: article PMC4810246

Experiments:
[1] = target: porcine aminopeptidase N (pAPN) ectodomain with a C-terminal His6 tag (UniProt P15145); assay: ELISA; details: read off a plot
[2] = target: the three mutant proteins; assay: ELISA; plates coated overnight at 4 °C with IgG4 Fc-tagged S1 fragments or mutants (60 μg/mL or 120 to 1.875 μg/mL), blocked with BSA, incubated with His6-tagged pAPN (50 μg/mL) 2 h at RT; anti-His detection
[3] = S protein 1.875 μg/mL, parent: est. 0.25
[4] = S protein 3.75 μg/mL, parent: est. 0.42
[5] = S protein 7.5 μg/mL, parent: est. 0.70
[6] = S protein 15 μg/mL, parent: est. 1.2
[7] = S protein 30 μg/mL, parent: est. 1.7
[8] = S protein 60 μg/mL, parent: est. 2.0
[9] = S proteins coated at 60 μg/mL, pAPN in solution, parent: est. 1.9

Molecule	response [1, 3]	response [1, 4]	response [1, 5]	response [1, 6]	response [1, 7]	response [1, 8]	response [1, 9]	percent reduction of receptor-binding activity against wild-type S477–629 [2]
PEDV CHGD-01 S1 C-terminus fragment S477-629 with a C-terminal IgG4 Fc tag residues 556-563 replaced by HCoV-NL63 residues 534-541 (RBM2-1)	0.15 Abs (630 nm)	0.32 Abs (630 nm)	0.7 Abs (630 nm)	0.88 Abs (630 nm)	0.93 Abs (630 nm)	1.1 Abs (630 nm)	1.2 Abs (630 nm)	
PEDV CHGD-01 S1 C-terminus fragment S477-629 with a C-terminal IgG4 Fc tag residues 607-615 replaced by SGSGS (RBM3-2)	0.05 Abs (630 nm)	0.06 Abs (630 nm)	0.13 Abs (630 nm)	0.34 Abs (630 nm)	0.8 Abs (630 nm)	1.2 Abs (630 nm)	1.4 Abs (630 nm)	
PEDV CHGD-01 S1 C-terminus fragment S477-629 with a C-terminal IgG4 Fc tag residues 521-534 replaced by HCoV-NL63 residues 493-506 (RBM1-1)	0.13 Abs (630 nm)	0.25 Abs (630 nm)	0.6 Abs (630 nm)	0.98 Abs (630 nm)	1 Abs (630 nm)	1.1 Abs (630 nm)	1.2 Abs (630 nm)	
porcine aminopeptidase N (pAPN) ectodomain with a C-terminal His6 tag (receptor) QSKPWNRYRLPTTLLPDSYNVTLRPYLTPNADGLYIFKGKSIVRLLCQEPTDVIIIHSKKLNYTTQGHMVVLRGVGDSQVPEIDRTELVELTEYLVVHLKGSLQPGHMYEMESEFQGELADDLAGFYRSEYMEGNVKKVLATTQMQSTDARKSFPCFDEPAMKATFNITLIHPNNLTALSNMPPKGSSTPLAEDPNWSVTEFETTPVMSTYLLAYIVSEFQSVNETAQNGVLIRIWARPNAIAEGHGMYALNVTGPILNFFANHYNTSYPLPKSDQIALPDFNAGAMENWGLVTYRENALLFDPQSSSISNKERVVTVIAHELAHQWFGNLVTLAWWNDLWLNEGFASYVEYLGADHAEPTWNLKDLIVPGDVYRVMAVDALASSHPLTTPAEEVNTPAQISEMFDSISYSKGASVIRMLSNFLTEDLFKEGLASYLHAFAYQNTTYLDLWEHLQKAVDAQTSIRLPDTVRAIMDRWTLQMGFPVITVDTKTGNISQKHFLLDSESNVTRSSAFDYLWIVPISSIKNGVMQDHYWLRDVSQAQNDLFKTASDDWVLLNVNVTGYFQVNYDEDNWRMIQHQLQTNLSVIPVINRAQVIYDSFNLATAHMVPVTLALDNTLFLNGEKEYMPWQAALSSLSYFSLMFDRSEVYGPMKKYLRKQVEPLFQHFETLTKNWTERPENLMDQYSEINAISTACSNGLPQCENLAKTLFDQWMSDPENNPIHPNLRSTIYCNAIAQGGQDQWDFAWGQLQQAQLVNEADKLRSALACSNEVWLLNRYLGYTLNPDLIRKQDATSTINSIASNVIGQPLAWDFVQSNWKKLFQDYGGGSFSFSNLIQGVTRRFSSEFELQQLEQFKKNNMDVGFGSGTRALEQALEKTKANIKWVKENKEVVLNWFIEHS								30 to 40%
